Here are results for five molecules from patent US4623625A, “Enzyme extraction and purification processes” (priority 1983, dated 1986).

The target in data set [1] is T1, Zymomonas mobilis glucose 6-phosphate dehydrogenase EC 1.1.1.49 (Zymomonas mobilis subsp. mobilis, UniProt P21907).
T1 construct: endogenous in cells; host or cells: Zymomonas mobilis cells (enzyme extracted and purified from the organism itself)
T1 sequence (P21907 1-485): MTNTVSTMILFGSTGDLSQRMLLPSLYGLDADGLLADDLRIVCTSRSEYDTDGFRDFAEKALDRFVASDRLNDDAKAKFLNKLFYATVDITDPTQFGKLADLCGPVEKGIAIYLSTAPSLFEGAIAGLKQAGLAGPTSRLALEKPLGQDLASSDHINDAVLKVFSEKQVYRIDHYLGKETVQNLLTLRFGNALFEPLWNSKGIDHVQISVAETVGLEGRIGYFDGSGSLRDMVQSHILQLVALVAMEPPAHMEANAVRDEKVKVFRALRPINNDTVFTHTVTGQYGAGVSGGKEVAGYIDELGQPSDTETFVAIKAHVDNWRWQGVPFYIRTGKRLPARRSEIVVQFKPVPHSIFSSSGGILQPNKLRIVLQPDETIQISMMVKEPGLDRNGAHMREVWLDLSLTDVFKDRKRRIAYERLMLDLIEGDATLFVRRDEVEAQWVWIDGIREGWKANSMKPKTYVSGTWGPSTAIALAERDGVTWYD
The class given is biochemical. To be noted: assay conditions: 25° C., 50 mM Tris-Cl buffer, pH 8.0.

The target of data set [2] is T2, Zymomonas mobilis fructokinase EC 2.7.1.4 (Zymomonas mobilis subsp. mobilis, UniProt Q03417).
T2 construct: endogenous in cells; host or cells: Zymomonas mobilis cells (enzyme extracted and purified from the organism itself)
T2 sequence (Q03417 1-301): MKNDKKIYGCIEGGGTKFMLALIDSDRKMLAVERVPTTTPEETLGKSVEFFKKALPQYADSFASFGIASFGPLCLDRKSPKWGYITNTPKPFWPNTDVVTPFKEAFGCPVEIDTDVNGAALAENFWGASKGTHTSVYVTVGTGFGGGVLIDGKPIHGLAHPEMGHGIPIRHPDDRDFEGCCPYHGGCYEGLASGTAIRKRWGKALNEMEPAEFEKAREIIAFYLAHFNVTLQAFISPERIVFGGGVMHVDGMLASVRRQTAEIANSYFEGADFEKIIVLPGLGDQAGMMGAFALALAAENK
Kind of data set: Kinetic properties, sugar specificity and glucose inhibition of purified fructokinase. The class given is biochemical. An excerpt: The active enzyme may be concentrated by ultrafiltration and stored frozen or freeze-dried.

Substrate in data set [3]: NC(=O)c1ccc[n+]([C@@H]2O[C@H](COP(=O)([O-])OP(=O)(O)OC[C@H]3O[C@@H](n4cnc5c(N)ncnc54)[C@H](OP(=O)(O)O)[C@@H]3O)[C@@H](O)[C@H]2O)c1
Briefly: purified protein, by the assay type. The conditions noted are these: other: assay conditions printed: 25° C., 50 mM Tris-Cl buffer, pH 8.0, pH 8.0.

Substrate in data set [4]: NC(=O)c1ccc[n+]([C@@H]2O[C@H](COP(=O)([O-])OP(=O)(O)OC[C@H]3O[C@@H](n4cnc5c(N)ncnc54)[C@H](O)[C@@H]3O)[C@@H](O)[C@H]2O)c1
Briefly: purified protein, by the assay type. The class given is biochemical, Zymomonas mobilis. The conditions noted are these: other: assay conditions printed: 25° C., 50 mM Tris-Cl buffer, pH 8.0.

Substrate in data set [5]: OC[C@H]1OC(O)[C@H](O)[C@@H](O)[C@@H]1O
Kind of data set: purified protein, by the assay type. To be noted: other: approximate values, assay conditions: 25° C., 50 mM K-Morpholinopropane sulphonate, 30 mM NaCl, 2 mM MgCl2, pH 6.8, pH 6.8.

Substrate in data set [6]: Nc1ncnc2c1ncn2[C@@H]1O[C@H](COP(=O)(O)OP(=O)(O)OP(=O)(O)O)[C@@H](O)[C@H]1O
Briefly: Kinetic properties and sugar specificity of purified glucokinase. The format is biochemical, Zymomonas mobilis. The conditions noted are these: other: approximate values, assay conditions: 25° C., 50 mM K-Morpholinopropane sulphonate, 30 mM NaCl, 2 mM MgCl2, pH 6.8.

Substrate in data set [7]: Nc1ncnc2c1ncn2[C@@H]1O[C@H](COP(=O)(O)OP(=O)(O)OP(=O)(O)O)[C@@H](O)[C@H]1O
Kind of data set: purified protein, by the assay type. The format is biochemical, Zymomonas mobilis. The conditions noted are these: other: assay conditions printed: 50 mM K-morpholino propane sulphonate buffer, 30 mM NaCl, 2 mM MgCl2 pH 6.8.

Substrate in data set [8]: O=C(CO)[C@@H](O)[C@H](O)[C@H](O)CO
Kind of data set: purified protein, by the assay type. The class given is biochemical, Zymomonas mobilis. To be noted: other: assay conditions printed: 50 mM K-morpholino propane sulphonate buffer, 30 mM NaCl, 2 mM MgCl2 pH 6.8.

Consider “glucose 6-phosphate [glucose 6-phosphate dehydrogenase]”, for which the Km in data set [1] stood at 170 µM. For `OC[C@H]1OC(O)[C@H](O)[C@@H](O)[C@@H]1O` (stereo partly drawn) [glucose], the Ki in data set [2] (competitive inhibitor with fructose) amounted to 200 µM. The “enzyme activity in the presence of glucose” value in data set [2] (glucose at 5-10 mM or more, low levels of fructose) is “essentially inactive”.

B1: Zymomonas mobilis glucose 6-phosphate dehydrogenase EC 1.1.1.49 (Zymomonas mobilis subsp. mobilis ZM4 = ATCC 31821) (protein)
chain: MTNTVSTMILFGSTGDLSQRMLLPSLYGLDADGLLADDLRIVCTSRSEYDTDGFRDFAEKALDRFVASDRLNDDAKAKFLNKLFYATVDITDPTQFGKLADLCGPVEKGIAIYLSTAPSLFEGAIAGLKQAGLAGPTSRLALEKPLGQDLASSDHINDAVLKVFSEKQVYRIDHYLGKETVQNLLTLRFGNALFEPLWNSKGIDHVQISVAETVGLEGRIGYFDGSGSLRDMVQSHILQLVALVAMEPPAHMEANAVRDEKVKVFRALRPINNDTVFTHTVTGQYGAGVSGGKEVAGYIDELGQPSDTETFVAIKAHVDNWRWQGVPFYIRTGKRLPARRSEIVVQFKPVPHSIFSSSGGILQPNKLRIVLQPDETIQISMMVKEPGLDRNGAHMREVWLDLSLTDVFKDRKRRIAYERLMLDLIEGDATLFVRRDEVEAQWVWIDGIREGWKANSMKPKTYVSGTWGPSTAIALAERDGVTWYD
notes: endogenous in cells; host or cells: Zymomonas mobilis cells (enzyme extracted and purified from the organism itself)
On to B1, for which the Km turned out to be 40 µM in data set [3] and 210 µM in data set [4].

B2: Zymomonas mobilis glucokinase EC 2.7.1.2 (Zymomonas mobilis subsp. mobilis ZM4 = ATCC 31821) (protein)
chain: MEIVAIDIGGTHARFSIAEVSNGRVLSLGEETTFKTAEHASLQLAWERFGEKLGRPLPRAAAIAWAGPVHGEVLKLTNNPWVLRPATLNEKLDIDTHVLINDFGAVAHAVAHMDSSYLDHICGPDEALPSDGVITILGPGTGLGVAHLLRTEGRYFVIETEGGHIDFAPLDRLEDKILARLRERFRRVSIERIISGPGLGNIYEALAAIEGVPFSLLDDIKLWQMALEGKDNLAEAALDRFCLSLGAIAGDLALAQGATSVVIGGGVGLRIASHLPESGFRQRFVSKGRFERVMSKIPVKLITYPQPGLLGAAAAYANKYSEVE
notes: Glucokinase so obtained is almost homogenous by electrophoretic criteria; endogenous in cells; host or cells: Zymomonas mobilis cells (enzyme extracted and purified from the organism itself)
B2: the Km is 200 µM in data set [5] and 800 µM in data set [6].

B3: Zymomonas mobilis fructokinase EC 2.7.1.4 (Zymomonas mobilis subsp. mobilis ZM4 = ATCC 31821) (protein)
chain: MKNDKKIYGCIEGGGTKFMLALIDSDRKMLAVERVPTTTPEETLGKSVEFFKKALPQYADSFASFGIASFGPLCLDRKSPKWGYITNTPKPFWPNTDVVTPFKEAFGCPVEIDTDVNGAALAENFWGASKGTHTSVYVTVGTGFGGGVLIDGKPIHGLAHPEMGHGIPIRHPDDRDFEGCCPYHGGCYEGLASGTAIRKRWGKALNEMEPAEFEKAREIIAFYLAHFNVTLQAFISPERIVFGGGVMHVDGMLASVRRQTAEIANSYFEGADFEKIIVLPGLGDQAGMMGAFALALAAENK
notes: as for B1
Consider B3, for which the Km in data set [7] amounted to 400 µM; in data set [8] it was 500 µM.
